From publication PMC5730846, “Tumor suppressor Tsc1 is a new Hsp90 co‐chaperone that facilitates folding of kinase and non‐kinase clients” (The EMBO Journal, 2017)

Biological target: the molecule itself
Assay: SEC; Tsc1-D-His6 concentrated to 10 mg/ml, Superdex 75 gel filtration

B1: Tsc1-D-His6 (domain or fragment, UniProt Q92574 998-1164, looked up)
chain: DGCSDSMVGHNEEASGHNGETKTPRPSSARGSSGSRGGGGSSSSSSELSTPEKPPHQRAGPFSSRWETTMGEASASIPTTVGSLPSSKSFLGMKARELFRNKSESQCDEDGMTSSLSESLKTELGKDLGVEAKIPLNLDGPHPSPPTPDSVGQLHIMDYNETHHEHS
notes: predicted monomer 22.1 kDa; dimer by gel filtration; also called fragment D; source: E. coli Tuner pLysS, purified (Ni-NTA)
stoichiometry N: 2
